Reference: article PMC4764562, “The Sec7 N-terminal regulatory domains facilitate membrane-proximal activation of the Arf1 GTPase” (eLife, 2016)

T1: GST-Arf1 (Saccharomyces cerevisiae (strain ATCC …, UniProt P11076))
T1 chain: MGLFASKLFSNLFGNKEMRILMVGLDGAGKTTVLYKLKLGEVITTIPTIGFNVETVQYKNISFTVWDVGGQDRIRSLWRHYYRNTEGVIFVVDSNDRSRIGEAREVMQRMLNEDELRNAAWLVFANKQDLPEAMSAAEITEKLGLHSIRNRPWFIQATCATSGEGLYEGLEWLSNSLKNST

B1: S. cerevisiae Sec7ΔC (residues 203-1017) (domain or fragment, UniProt P11075 203-1017, looked up)
chain: PRSTHTRNISLSSNGSNTNSTIILVKTTLETILNDKDIKKNSNAQKAIERTLQKFKEFDPQTTNNPHYVDSILVFEALRASCRTKSSKVQSLALDCLSKLFSFRSLDETLLVNPPDSLASNDQRQDAADGITPPPKQKIIDAAIDTISDCFQGEGTDDRVELQIVRALSSCILEEDSSSLCHGASLLKAIRTIYNVFVFSLNPSNQGIAQATLTQIISSVYDKIDLKQSTSSAVSLSTKNHQQQSAIELSEASENAETPAPLTLENMDKLNDDEERLMDAQQPDSIAITNQDLAVKDAFLVFRVMAKICAKPLETELDMRSHAVRSKLLSLHIIYSIIKDHIDVFLSHNIFLPGKERVCFIDSIRQYLRLVLSRNAASPLAPVFEVTLEIMWLLIANLRADFVKEIPVFLTEIYFPISELTTSTSQQKRYFLSVIQRICNDPRTLVEFYLNYDCNPGMPNVMEITVDYLTRLALTRVEITQTQRSYYDEQISKSLSTYNFSQLPLLTSSNLSSSPDVGQVNLLFPLDFALKMVSLNCIVSVLRSLSSWAHKALNPNTHTANKVLLNTTSSARQESRSSLSNDVRSSIMTSNDDFKPTYEDEESRSLSSQNIDADDPTQFENLKLRKTALSECIAIFNNKPKKAIPVLIKKGFLKDDSPISIAKWLLETEGLDMAAVGDYLGEGDDKNIAIMHAFVDEFDFTGMSIVDALRSFLQSFRLPGEGQKIDRFMLKFAERFVDQNPGVFSKADTAYVLSYSLIMLNTDLHSSQIKNKMSLQEFLENNEGIDNGRDLPRDFLEGLFNEIANNEIKLISEQH
notes: Sec7 of S. cerevisiae, residues 203-1017 (DCB/HUS and GEF domains); also called Sec7(203-1017); construct lacking the HDS1-4 domains with the GEF domain; source: E. coli, purified (Ni-NTA, MonoQ, Superdex 200)
B2: S. cerevisiae Sec7 DCB/HUS domain construct (domain or fragment)
chain: PRSTHTRNISLSSNGSNTNSTIILVKTTLETILNDKDIKKNSNAQKAIERTLQKFKEFDPQTTNNPHYVDSILVFEALRASCRTKSSKVQSLALDCLSKLFSFRSLDETLLVNPPDSLASNDQRQDAADGITPPPKQKIIDAAIDTISDCFQGEGTDDRVELQIVRALSSCILEEDSSSLCHGASLLKAIRTIYNVFVFSLNPSNQGIAQATLTQIISSVYDKIDLKQSTSSAVSLSTKNHQQQSAIELSEASENAETPAPLTLENMDKLNDDEERLMDAQQPDSIAITNQDLAVKDAFLVFRVMAKICAKPLETELDMRSHAVRSKLLSLHIIYSIIKDHIDVFLSHNIFLPGKERVCFIDSIRQYLRLVLSRNAASPLAPVFEVTLEIMWLLIANLRADFVKEIPVFLTEIYFPISELTTSTSQQKRYFLSVIQRICNDPRTLVEFYLNYDCNPGMPNVMEITVDYLTRLALTRVEITQTQRSYYDEQISKSLSTYNFSQLPLLTSSNLSSSPDVGQVNLLFPLDFALKMVSLNCIVSVLRSLSSWAHKALNPNTHTANKVLLNTTSSARQESRSSLSNDVRSSIMTSNDDFKPTYEDEESRSLSSQNIDADDPTQFEN
B3: S. cerevisiae Gea2 full-length (natural protein, UniProt P39993 1-1459, looked up)
chain: MSDREFVTVDPVTIIIKECINLSTAMRKYSKFTSQSGVAALLGGGSEIFSNQDDYLAHTFNNLNTNKHNDPFLSGFIQLRLMLNKLKNLDNIDSLTILQPFLLIVSTSSISGYITSLALDSLQKFFTLNIINESSQNYIGAHRATVNALTHCRFEGSQQLSDDSVLLKVVFLLRSIVDSPYGDLLSNSIIYDVLQTILSLACNNRRSEVLRNAAQSTMIAVTVKIFSKLKTIEPVNVNQIYINDESYTNDVLKADTIGTNVESKEEGSQEDPIGMKVNNEEAISEDDGIEEEHIHSEKSTNGAEQLDIVQKTTRSNSRIQAYADDNYGLPVVRQYLNLLLSLIAPENELKHSYSTRIFGLELIQTALEISGDRLQLYPRLFTLISDPIFKSILFIIQNTTKLSLLQATLQLFTTLVVILGNNLQLQIELTLTRIFSILLDDGTANNSSSENKNKPSIIKELLIEQISILWTRSPSFFTSTFINFDCNLDRADVSINFLKALTKLALPESALTTTESVPPICLEGLVSLVDDMFDHMKDIDREEFGRQKNEMEILKKRDRKTEFIECTNAFNEKPKKGIPMLIEKGFIASDSDKDIAEFLFNNNNRMNKKTIGLLLCHPDKVSLLNEYIRLFDFSGLRVDEAIRILLTKFRLPGESQQIERIIEAFSSAYCENQDYDPSKISDNAEDDISTVQPDADSVFILSYSIIMLNTDLHNPQVKEHMSFEDYSGNLKGCCNHKDFPFWYLDRIYCSIRDKEIVMPEEHHGNEKWFEDAWNNLISSTTVITEIKKDTQSVMDKLTPLELLNFDRAIFKQVGPSIVSTLFNIYVVASDDHISTRMITSLDKCSYISAFFDFKDLFNDILNSIAKGTTLINSSHDDELSTLAFEYGPMPLVQIKFEDTNTEIPVSTDAVRFGRSFKGQLNTVVFFRIIRRNKDPKIFSKELWLNIVNIILTLYEDLILSPDIFPDLQKRLKLSNLPKPSPEISINKSKESKGLLSTFASYLKGDEEPTEEEIKSSKKAMECIKSSNIAASVFGNESNITADLIKTLLDSAKTEKNADNSRYFEAELLFIIELTIALFLFCKEEKELGKFILQKVFQLSHTKGLTKRTVRRMLTYKILLISLCADQTEYLSKLINDELLKKGDIFTQKFFATNQGKEFLKRLFSLTESEFYRGFLLGNENFWKFLRKVTAMKEQSESIFEYLNESIKTDSNILTNENFMWVLGLLDEISSMGAVGNHWEIEYKKLTESGHKIDKENPYKKSIELSLKSIQLTSHLLEDNNDLRKNEIFAIIQALAHQCINPCKQISEFAVVTLEQTLINKIEIPTNEMESVEELIEGGLLPLLNSSETQEDQKILISSILTIISNVYLHYLKLGKTSNETFLKILSIFNKFVEDSDIEKKLQQLILDKKSIEKGNGSSSHGSAHEQTPESNDVEIEATAPIDDNTDDDNKPKLSDVEKD
notes: Gea2, early-Golgi Arf-GEF of S. cerevisiae, full length
B4: S. cerevisiae Sec7f (residues 203-2009) (domain or fragment, UniProt P11075 203-2009, looked up)
chain: PRSTHTRNISLSSNGSNTNSTIILVKTTLETILNDKDIKKNSNAQKAIERTLQKFKEFDPQTTNNPHYVDSILVFEALRASCRTKSSKVQSLALDCLSKLFSFRSLDETLLVNPPDSLASNDQRQDAADGITPPPKQKIIDAAIDTISDCFQGEGTDDRVELQIVRALSSCILEEDSSSLCHGASLLKAIRTIYNVFVFSLNPSNQGIAQATLTQIISSVYDKIDLKQSTSSAVSLSTKNHQQQSAIELSEASENAETPAPLTLENMDKLNDDEERLMDAQQPDSIAITNQDLAVKDAFLVFRVMAKICAKPLETELDMRSHAVRSKLLSLHIIYSIIKDHIDVFLSHNIFLPGKERVCFIDSIRQYLRLVLSRNAASPLAPVFEVTLEIMWLLIANLRADFVKEIPVFLTEIYFPISELTTSTSQQKRYFLSVIQRICNDPRTLVEFYLNYDCNPGMPNVMEITVDYLTRLALTRVEITQTQRSYYDEQISKSLSTYNFSQLPLLTSSNLSSSPDVGQVNLLFPLDFALKMVSLNCIVSVLRSLSSWAHKALNPNTHTANKVLLNTTSSARQESRSSLSNDVRSSIMTSNDDFKPTYEDEESRSLSSQNIDADDPTQFENLKLRKTALSECIAIFNNKPKKAIPVLIKKGFLKDDSPISIAKWLLETEGLDMAAVGDYLGEGDDKNIAIMHAFVDEFDFTGMSIVDALRSFLQSFRLPGEGQKIDRFMLKFAERFVDQNPGVFSKADTAYVLSYSLIMLNTDLHSSQIKNKMSLQEFLENNEGIDNGRDLPRDFLEGLFNEIANNEIKLISEQHQAMLSGDTNLVQQQQSAFNFFNSRDLTREAYNQVSKEISSKTELVFKNLNKNKGGPDVYYAASHVEHVKSIFETLWMSFLAALTPPFKDYDDIDTTNKCLEGLKISIKIASTFRINDARTSFVGALVQFCNLQNLEEIKVKNVNAMVILLEVALSEGNYLEGSWKDILLVVSQMERLQLISKGIDRDTVPDVAQARVANPRVSYESSRSNNTSFFDVWGKKATPTELAQEKHHNQTLSPEISKFISSSELVVLMDNIFTKSSELSGNAIVDFIKALTAVSLEEIESSENASTPRMFSLQKMVDVCYYNMDRIKLEWTPLWAVMGKAFNKIATNSNLAVVFFAIDSLRQLSMRFLDIEELSGFEFQHDFLKPFEYTVQNSGNTEVQEMIIECFRNFILTKSESIKSGWKPILESLQYTARSSTESIVLKTQLLVSNDIVTNHFENVFSQEDAFSELVGVFREITKNKRFQKLSLHALESLRKMTQNVADICFYNENKTEEERKHNDALLRGKDIFQDVWFPMLFCFNDTIMTAEDLEVRSRALNYMFDALVAYGGKFNDDFWEKICKKLLFPIFGVLSKHWEVNQFNSHDDLSVWLSTTLIQALRNLIALFTHYFESLNRMLDGFLGLLVSCICQENDTIARIGRSCLQQLILQNVSKFNEYHWNQIGDVFDKLFDLTTANELFDYDPLQQGRKSSVSHHQTTNDTSQHSDDDSNDRRENDSNISETVERAHQEESSEDVGGDMVETLNGQTKLNNGNSVPTVKDELNPKPASLSIPKKTKHMKRNESNEDIRRRINIKNSIVVKCVLQLLMIELLNELFENEDFAHCIPYKEAIRITRLLEKSYEFSRDFNEDYGLRTRLVEARVVDKIPNLLKQETSAAAVLLDIMFQLYLNDDEKKADLITRLITICIQVVEGYVSLDDRTMERSINAWRSVIVEILQGYYEFDDEDFRLYCPAMYALVIQILDKSVPTELRHAIKQFLSRVGELYLSTD
notes: Sec7 (Arf-GEF) of S. cerevisiae, residues 203-2009; source: E. coli, purified (Ni-NTA, MonoQ, Superdex 200)

Assays:
[1] = molecular target: full-length T. terrestris Sec7 (T. terrestris); assay: SEC-MALS; 5 mg/ml, Wyatt WTC-050S5 gel filtration column with DAWN HELEOS-II and Optilab T-rEX detectors, room temperature; measured mass compared with that predicted from the sequence
[2] = molecular target: construct corresponding to a predicted coiled-coil from the HDS4 domain of Sec7; assay: as above
[3] = molecular target: the molecule itself; assay: as above
GST-Arf1 = molecular target: T1, GST-Arf1; assay: GST pulldown (also liposome pelleting); Arf1 loaded with GMPPNP or GDP; no stable nucleotide-dependent interaction seen (Arf1 is nevertheless a GEF substrate of Sec7ΔC)

Row | Molecule | stoichiometry N [3] | also measured
1 | full-length T. terrestris Sec7 (natural protein) |  | stoichiometry N [1]: 2
2 | construct corresponding to a predicted coiled-coil from the HDS4 domain of Sec7 (domain or fragment) |  | stoichiometry N [2]: 2
3 | B1 | 2 | binding result (GST-Arf1): no binding
4 | B2 | 2 | 
5 | B3 | 2 | 
6 | B4 | 2 | 
